In article PMC9718833:

What was measured:
[1] = biological target: Gi3 heterotrimer of the BRET-based Gi-activation sensor (Gai3-RlucII / GFP10Gγ2 / Gβ1) (UniProt P08754)
[2] = biological target: Gs protein (human (endogenous in HEK293T)) (UniProt P63092)
Chain of UniProt P63092 (P63092 whole entry, looked up): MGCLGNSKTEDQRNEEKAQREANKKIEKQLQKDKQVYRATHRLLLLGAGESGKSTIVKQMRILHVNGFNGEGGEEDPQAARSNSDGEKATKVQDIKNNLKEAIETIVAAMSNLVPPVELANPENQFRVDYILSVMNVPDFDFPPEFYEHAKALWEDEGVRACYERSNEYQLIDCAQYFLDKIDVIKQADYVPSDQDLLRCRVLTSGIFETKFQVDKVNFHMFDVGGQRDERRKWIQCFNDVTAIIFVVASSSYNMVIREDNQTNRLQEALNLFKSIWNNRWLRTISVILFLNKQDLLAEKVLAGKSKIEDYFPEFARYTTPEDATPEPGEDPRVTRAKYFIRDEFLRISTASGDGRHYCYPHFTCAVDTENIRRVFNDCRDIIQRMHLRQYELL

Chain of UniProt P08754 (P08754 whole entry, chain 1 of 3): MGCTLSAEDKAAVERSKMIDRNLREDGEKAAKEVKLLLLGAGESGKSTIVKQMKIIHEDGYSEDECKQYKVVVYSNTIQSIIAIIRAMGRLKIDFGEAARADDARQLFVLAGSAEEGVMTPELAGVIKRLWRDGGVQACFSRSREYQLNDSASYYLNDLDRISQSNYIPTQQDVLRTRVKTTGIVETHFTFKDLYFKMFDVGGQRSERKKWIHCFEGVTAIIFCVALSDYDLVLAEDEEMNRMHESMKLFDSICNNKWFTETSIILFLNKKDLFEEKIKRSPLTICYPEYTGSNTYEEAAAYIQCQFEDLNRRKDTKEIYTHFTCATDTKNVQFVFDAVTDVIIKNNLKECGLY
Chain of UniProt P08754 (P62873 whole entry, chain 2 of 3, further chain): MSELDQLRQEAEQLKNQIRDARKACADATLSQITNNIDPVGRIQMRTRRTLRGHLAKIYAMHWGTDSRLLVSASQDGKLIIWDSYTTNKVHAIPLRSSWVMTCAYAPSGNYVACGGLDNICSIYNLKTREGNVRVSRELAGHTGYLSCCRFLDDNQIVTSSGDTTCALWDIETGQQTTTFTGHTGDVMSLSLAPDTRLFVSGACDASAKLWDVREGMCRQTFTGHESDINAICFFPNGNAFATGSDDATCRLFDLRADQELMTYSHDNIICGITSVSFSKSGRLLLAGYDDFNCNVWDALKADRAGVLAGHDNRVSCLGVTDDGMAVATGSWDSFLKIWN
Chain of UniProt P08754 (P59768 whole entry, chain 3 of 3, further chain): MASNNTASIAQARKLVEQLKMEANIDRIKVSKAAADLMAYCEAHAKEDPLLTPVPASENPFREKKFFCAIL

Substance | increase of the Emax of CHRM1 activation of Gi compared to WT CHRM1, BRET-based Gi-activation (Gi3) sensor in HEK293T, carbachol (% increase of Emax against WT) [1] | increase of the Emax of Gs-dependent cAMP production following carbachol, EPAC-BRET sensor in HEK293T with 500 nM of the Gq inhibitor YM-254890, against WT CHRM1 (% increase of Emax) [2]
HA-tagged human M1 muscarinic acetylcholine receptor (CHRM1) A424K (from UniProt P11229 1-460) | 31 | 
HA-tagged human M1 muscarinic acetylcholine receptor (CHRM1) E221K (from UniProt P11229 1-460) | 30 | 
HA-tagged human M1 muscarinic acetylcholine receptor (CHRM1) L131F (from UniProt P11229 1-460) |  | 51
HA-tagged human M1 muscarinic acetylcholine receptor (CHRM1) R218Q (from UniProt P11229 1-460) |  | 17
